In PMC7884425 one finds Ka and Kd data, which are given here for 1 molecule.

The target in assay [1] is full-length human PARP1 (activated by DNA) (human), P09874. In words: ITC; in the presence of DNA. The note with it: natural protein; chains chain; remark: other sources report otherwise. Background: ITC needs no label: the signal is the heat of the interaction.
Assay [2] has the same target. In words: ITC; HPF1 in the syringe; full-length PARP1 0.02 mM pre-incubated with 0.06 mM DNA hairpin at 4 °C for at least 60 min, in the cell; 25 °C; 20 mM Tris-pH 8.0, 150 mM NaCl, 1 mM TCEP, 1 mM MgCl2. The note with it: remark: other sources report otherwise.

Chain of full-length human PARP1 (activated by DNA) (human), P09874 (P09874 whole entry): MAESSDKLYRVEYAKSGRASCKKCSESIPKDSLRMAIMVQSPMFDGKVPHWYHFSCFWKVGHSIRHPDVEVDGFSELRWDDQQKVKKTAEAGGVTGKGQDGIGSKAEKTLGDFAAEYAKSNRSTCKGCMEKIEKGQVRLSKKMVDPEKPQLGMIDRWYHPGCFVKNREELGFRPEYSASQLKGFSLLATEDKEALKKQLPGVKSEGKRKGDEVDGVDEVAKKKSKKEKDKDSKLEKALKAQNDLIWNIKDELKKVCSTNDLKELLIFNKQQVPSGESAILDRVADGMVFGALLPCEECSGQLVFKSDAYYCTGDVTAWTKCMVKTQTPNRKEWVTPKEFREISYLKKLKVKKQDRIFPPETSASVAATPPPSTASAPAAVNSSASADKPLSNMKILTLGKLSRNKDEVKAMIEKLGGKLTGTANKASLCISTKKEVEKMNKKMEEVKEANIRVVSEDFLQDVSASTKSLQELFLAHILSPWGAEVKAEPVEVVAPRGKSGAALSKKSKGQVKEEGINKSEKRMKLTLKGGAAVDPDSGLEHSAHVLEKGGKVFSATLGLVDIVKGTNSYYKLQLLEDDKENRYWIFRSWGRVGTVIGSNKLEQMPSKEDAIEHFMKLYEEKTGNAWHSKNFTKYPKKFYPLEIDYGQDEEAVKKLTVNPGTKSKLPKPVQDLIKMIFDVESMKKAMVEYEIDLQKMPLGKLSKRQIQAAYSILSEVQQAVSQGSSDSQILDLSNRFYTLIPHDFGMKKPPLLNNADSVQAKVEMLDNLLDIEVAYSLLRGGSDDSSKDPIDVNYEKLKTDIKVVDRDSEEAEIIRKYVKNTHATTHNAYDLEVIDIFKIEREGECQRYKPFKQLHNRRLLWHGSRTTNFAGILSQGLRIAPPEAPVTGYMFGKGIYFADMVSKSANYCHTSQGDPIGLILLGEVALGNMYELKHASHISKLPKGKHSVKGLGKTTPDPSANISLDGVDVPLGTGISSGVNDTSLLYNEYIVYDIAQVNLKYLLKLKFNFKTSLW

B1: human HPF1 (histone PARylation factor 1), wild-type, Q9NWY4 1-346 (natural protein)
chain: MVGGGGKRRPGGEGPQCEKTTDVKKSKFCEADVSSDLRKEVENHYKLSLPEDFYHFWKFCEELDPEKPSDSLSASLGLQLVGPYDILAGKHKTKKKSTGLNFNLHWRFYYDPPEFQTIIIGDNKTQYHMGYFRDSPDEFPVYVGINEAKKNCIIVPNGDNVFAAVKLFLTKKLREITDKKKINLLKNIDEKLTEAARELGYSLEQRTVKMKQRDKKVVTKTFHGAGLVVPVDKNDVGYRELPETDADLKRICKTIVEAASDEERLKAFAPIQEMMTFVQFANDECDYGMGLELGMDLFCYGSHYFHKVAGQLLPLAYNLLKRNLFAEIIEEHLANRSQENIDQLAA
A word on the Kd: it is the constant that tells how readily two partners part at equilibrium. On to B1, for which the Ka in assay [1] was 330000 M⁻¹. Besides, the Kd in assay [2] is 2800 nM.
